From publication PMC7984374

Biological target: fluorescein-labeled FITC-casein
Assay: fluorescence polarisation

Substance “ClpB_(K-12) (from UniProt P63284 1-857) (enzyme)” has a Kd of 560 nM.
